Measured values as given in patent publication US20190077860A1 (EISAI R AND D MANAGEMENT, published 2019).
Where a chain is given by its changes, count along the chain named. Read-outs that look alike come from different tables or passages of the source.

B1: antibody A (antibody, mouse IgG1, kappa, V domains shown)
VH: QIQLVQSGPELKKPGETVKISCKASGYTFTDYSMHWVKQAPGKGLKWMGWINTETGEPTYADDFKGRFAFSLETSASTAYLQINNLKNEDTATYFCARIPLYYYGSRYWYFDVWGAGTTVTVSS
VL: DIQMTQSPASLSVSVGETVTITCRASENIYRNLAWYQQKQGKSPQLLVYAATNLADGVPSRFSGSGSGTQYSLKINSLQSEDFGSYYCQHFWGTPWTFGGGTKLEIKR
notes: mouse IgG1 heavy chain, kappa light chain; purified from hybridoma supernatant; also called anti-EphA4 monoclonal antibody; antibody A-IgG
B2: humanized antibody No. 135 (antibody, human IgG2)
heavy: QVQLVQSGSELKKPGASVKVSCKASGYTFTDYSMHWVRQAPGQGLEWMGWINTETGEPTYADDFKGRFVFSLDTSVSTAYLQISSLKAEDTAVYYCARIPLYYYGSRYWYFDVWGQGTTVTVSSASTKGPSVFPLAPSSRSTSESTAALGCLVKDYFPEPVTVSWNSGALTSGVHTFPAVLQSSGLYSLSSVVTVPSSNFGTQTYTCNVDHKPSNTKVDKTVERKSCVECPPCPAPPAAAPSVFLFPPKPKDTLMISRTPEVTCVVVDVSHEDPEVQFNWYVDGVEVHNAKTKPREEQFNSTFRVVSVLTVVHQDWLNGKEYKCKVSNKGLPAPIEKTISKTKGQPREPQVYTLPPSREEMTKNQVSLTCLVKGFYPSDIAVEWESNGQPENNYKTTPPMLDSDGSFFLYSKLTVDKSRWQQGNVFSCSVMHEALHNHYTQKSLSLSPG
light: EIVMTQSPATLSVSPGERATLSCRASENIYRNLAWYQQKPGQSPRLLIYAATNLADGIPARFSGSGSGTEYTLTISSLQSEDFAVYYCQHFWGTPWTFGQGTKVEIKRTVAAPSVFIFPPSDEQLKSGTASVVCLLNNFYPREAKVQWKVDNALQSGNSQESVTEQDSKDSTYSLSSTLTLSKADYEKHKVYACEVTHQGLSSPVTKSFNRGEC
notes: human Ig kappa; also called L2-4/HK1
B3: humanized antibody No. 94 (antibody, human IgG1, kappa)
heavy: QVQLVQSGSELKKPGASVKVSCKASGYTFTDYSMHWVRQAPGQGLKWMGWINTETGEPTYAQGFTGRFVFSLDTSVSTAYLQISSLKAEDTAVYYCARIPLYYYGSRYWYFDVWGQGTTVTVSSASTKGPSVFPLAPSSKSTSGGTAALGCLVKDYFPEPVTVSWNSGALTSGVHTFPAVLQSSGLYSLSSVVTVPSSSLGTQTYICNVNHKPSNTKVDKRVEPKSCDKTHTCPPCPAPPAAAPSVFLFPPKPKDTLMISRTPEVTCVVVDVSHEDPEVQFNWYVDGVEVHNAKTKPREEQFNSTFRVVSVLTVVHQDWLNGKEYKCKVSNKGLPAPIEKTISKTKGQPREPQVYTLPPSREEMTKNQVSLTCLVKGFYPSDIAVEWESNGQPENNYKTTPPMLDSDGSFFLYSKLTVDKSRWQQGNVFSCSVMHEALHNHYTQKSLSLSPG
light: B2 light
notes: human Ig kappa; also called L2-4/HA2
B4: humanized antibody No. 96 (antibody, human IgG1, kappa)
heavy: B3 heavy with Q62D, G63D, T65K
light: B2 light
notes: human Ig kappa; also called L2-4/HK2
B5: humanized antibody No. 136 (antibody, human IgG2)
heavy: B2 heavy with E46K
light: B2 light
notes: as for B4
B6: humanized antibody No. 95 (antibody, human IgG1, kappa)
heavy: B3 heavy with K46E, Q62D, G63D, T65K
light: B2 light
notes: as for B2
B7: humanized antibody No. 73 (antibody, human IgG1, kappa)
heavy: B3 heavy with V2I, Q62D, G63D, T65K
light: B2 light
notes: human Ig kappa; also called L2-4/HK4
B8: humanized antibody No. 71 (antibody, human IgG1, kappa)
heavy: B3 heavy with V2I
light: B2 light
notes: human Ig kappa; also called L2-4/HA4
B9: humanized antibody No. 93 (antibody, human IgG1, kappa)
heavy: B3 heavy with K46E
light: B2 light
notes: human Ig kappa; also called L2-4/HA1
B10: humanized antibody No. 137 (antibody, human IgG2)
heavy: B2 heavy with V2I, E46K
light: B2 light
notes: as for B7

Tests used:
[1] = biological target: T1, human EphA4 extracellular region-SEAP-His protein (human, UniProt P54764 20-547); assay: SPR, Ab captured
T1 construct: also called hEphA4-SEAP-His
T1 sequence (P54764 20-547): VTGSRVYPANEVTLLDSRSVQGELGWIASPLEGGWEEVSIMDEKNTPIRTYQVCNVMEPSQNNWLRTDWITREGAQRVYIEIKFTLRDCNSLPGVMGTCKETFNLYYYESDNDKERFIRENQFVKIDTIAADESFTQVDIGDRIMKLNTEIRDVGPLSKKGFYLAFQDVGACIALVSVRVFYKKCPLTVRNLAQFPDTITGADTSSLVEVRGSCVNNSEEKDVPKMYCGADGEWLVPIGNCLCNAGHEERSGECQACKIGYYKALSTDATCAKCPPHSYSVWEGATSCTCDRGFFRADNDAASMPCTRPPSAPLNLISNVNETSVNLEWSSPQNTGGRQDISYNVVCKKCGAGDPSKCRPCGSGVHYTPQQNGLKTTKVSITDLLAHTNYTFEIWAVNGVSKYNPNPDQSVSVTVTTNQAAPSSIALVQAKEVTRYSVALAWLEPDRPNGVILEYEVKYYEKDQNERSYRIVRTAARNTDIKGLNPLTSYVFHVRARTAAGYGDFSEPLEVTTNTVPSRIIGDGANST
In short: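 Antibodies captured (~30–60 RU) on a protein A chip, or for antibody A on immobilized rat anti-mouse IgG1, in HBS-EP. Human EphA4 extracellular region-SEAP-His at 0.6–50 nM injected in ascending order without regeneration, with 120 s association and 900 s dissociation. KD=kd/ka from 1:1 binding model fits.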

[2] = biological target: T1, human EphA4 extracellular …; assay: competition ELISA, competitor human Ephrin A5-Fc
Protocol: Antibody A obtained in Example 1 was evaluated for its inhibitory activity against the binding between human EphA4 and its human ligand according to the following steps. Each well of a 96-well plate (Nunc) was coated with an anti-alkaline phosphatase antibody (Thermo Fisher Scientific). After incubation overnight at 4° C., each well was blocked with 1% BlockAce (DS Pharma Biomedical) at room temperature for 1 hour. After washing with 0.05% Tween 20/PBS (Thermo Fisher Scientific) three times, the human EphA4 extracellular region-SEAP-His protein obtained by the method of Example 1 was added (final concentration: 10 nM) to each well and incubated at room temperature for 1 hour. After washing three times, ligands and serially diluted antibody A (0, 0.003, 0.01, 0.03, 0.1, 0.3, 1, 3, 10, 30, 100, 300, 1000, and 3000 nM) or an EphA4 inhibitor KYL peptide ([…], 0, 0.003, 0.01, 0.03, 0.1, 0.3, 1, 3, 10, 30, 100, 300, 1000, and 3000 μM, its synthesis was outsourced to Toray Research Center) were added to each well. The ligands used were biotinylated human Ephrin A5-Fc chimera (R&D Systems, final concentration: 0.7 nM) and biotinylated human Ephrin B3-Fc chimera (R&D Systems, final concentration: 2.3 nM). […] The absorbance at 450 nm was read using a microplate reader (Molecular Devices or PerkinElmer). […]

[3] = biological target: T1, human EphA4 extracellular …; assay: competition ELISA, competitor human Ephrin A5-Fc; remark: listed apart in the source
In short: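 Anti-alkaline phosphatase-coated plates captured EphA4-SEAP-His (10 nM final), then antibody (0–3000 nM serial dilutions) and biotinylated Ephrin A5-Fc (0.7 nM final) were co-added for 1 h at room temperature. Bound ligand detected with HRP-streptavidin and TMBZ, stopped with 1N H₂SO₄, A450 read.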

| Binder | Kd [1] [nM] | koff [1] [s⁻¹] | kon [1] [M⁻¹ s⁻¹] | IC50 [2] [nM] | IC50 [3] [nM] |
| --- | --- | --- | --- | --- | --- |
| B1 | 0.6 | 0.00025 | 420000 | ~2.7 | – |
| B2 | 1.3 | 0.0004 | 320000 | – | 2.5 |
| B3 | 0.95 | 0.00024 | 260000 | – | 2.7 |
| B4 | 1.1 | 0.00031 | 270000 | – | 3.7 |
| B5 | 1.4 | 0.00039 | 290000 | – | 2.5 |
| B6 | 1 | 0.00031 | 300000 | – | 3.1 |
| B7 | 0.93 | 0.00027 | 290000 | – | 2.4 |
| B8 | 0.82 | 0.00023 | 280000 | – | 2.5 |
| B9 | 0.77 | 0.00024 | 310000 | – | 2.5 |
| B10 | 1.3 | 0.00039 | 290000 | – | 2.5 |
